Numbering of substitutions follows the chain as printed.
B1: CFP0015 15L 50A (antibody, V domains shown)
VH: QVQLLESGGGLVQPGGSLRLSCAASGFTFSSYAMSWVRQAPGKGLEWVSAISGSGGSTYYADSVKGRFTISRDNSKNTLYLQMNSLRAEDTAVYYCARGDQIWYDQWYYFDMWGQGTLVTVSS
VL: DIQMTQSPSSLSASVGDRVTITCRASQSIEDDLAWYQQKPGKAPKLLIYAASNLQSGVPSRFSGSGSGTDFTLTISSLQPEDFATYYCQQYDSSPLTFGQGTKVEIK
B2: CFP0011 (antibody, V domains shown)
VH: QVQLVQSGAEVKKPGSSVKVSCKASGGTFSSYAISWVRQAPGQGLEWMGGIIPIFGTANYAQKFQGRVTITADESTSTAYMELSSLRSEDTAVYYCARDMSEFLGWSNYYSYPMDVWGQGTTVTVSS
VL: B1 VL with A50H, N53S, Y91S, S93N, L96Y
notes: IgG format
B3: CFP0015 15L 91D (antibody, V domains shown)
VH: B1 VH
VL: B1 VL with A50E, Y91D
B4: CFP0015 15L 91E (antibody, V domains shown)
VH: B1 VH
VL: B1 VL with A50E, Y91E
B5: CFP0015 15L 50T (antibody, V domains shown)
VH: B1 VH
VL: B1 VL with A50T
B6: CFP0015 15L 50S (antibody, V domains shown)
VH: B1 VH
VL: B1 VL with A50S
B7: CFP0015 15L 92T (antibody, V domains shown)
VH: B1 VH
VL: B1 VL with A50E, D92T
B8: CFP0015 15L 50H (antibody, V domains shown)
VH: B1 VH
VL: B1 VL with A50H
B9: CFP0015 15L 94T (antibody, V domains shown)
VH: B1 VH
VL: B1 VL with A50E, S94T
B10: CFP0015 15L 94Y (antibody, V domains shown)
VH: B1 VH
VL: B1 VL with A50E, S94Y
B11: CFP0015 15L 92Q (antibody, V domains shown)
VH: B1 VH
VL: B1 VL with A50E, D92Q
B12: CFP0015 15L 50D (antibody, V domains shown)
VH: B1 VH
VL: B1 VL with A50D
B13: CFP0015 15L 53H (antibody, V domains shown)
VH: B1 VH
VL: B1 VL with A50E, N53H
B14: CFP0015 15L 96W (antibody, V domains shown)
VH: B1 VH
VL: B1 VL with A50E, L96W
B15: CFP0015 15L 91R (antibody, V domains shown)
VH: B1 VH
VL: B1 VL with A50E, Y91R
B16: CFP0015 15L 94F (antibody, V domains shown)
VH: B1 VH
VL: B1 VL with A50E, S94F
B17: CFP0015 15L 50Q (antibody, V domains shown)
VH: B1 VH
VL: B1 VL with A50Q
B18: CFP0015 15L 92P (antibody, V domains shown)
VH: B1 VH
VL: B1 VL with A50E, D92P
B19: CFP0015 15L 96I (antibody, V domains shown)
VH: B1 VH
VL: B1 VL with A50E, L96I
B20: CFP0015 15L 91Q (antibody, V domains shown)
VH: B1 VH
VL: B1 VL with A50E, Y91Q
B21: CFP0015 15L 92S (antibody, V domains shown)
VH: B1 VH
VL: B1 VL with A50E, D92S
B22: CFP0015 15L 53S (antibody, V domains shown)
VH: B1 VH
VL: B1 VL with A50E, N53S
B23: CFP0011 11L 31H (antibody, V domains shown)
VH: B2 VH
VL: B1 VL with D31H, A50H, N53S, Y91S, S93N, L96Y
B24: CFP0011 11L 31A (antibody, V domains shown)
VH: B2 VH
VL: B1 VL with D31A, A50H, N53S, Y91S, S93N, L96Y
B25: CFP0015 15L 96H (antibody, V domains shown)
VH: B1 VH
VL: B1 VL with A50E, L96H
B26: CFP0015 15L 94W (antibody, V domains shown)
VH: B1 VH
VL: B1 VL with A50E, S94W
B27: CFP0011 11L 30D (antibody, V domains shown)
VH: B2 VH
VL: B1 VL with E30D, A50H, N53S, Y91S, S93N, L96Y
B28: CFP0015 15L 91S (antibody, V domains shown)
VH: B1 VH
VL: B1 VL with A50E, Y91S
B29: CFP0015 15L 93R (antibody, V domains shown)
VH: B1 VH
VL: B1 VL with A50E, S93R
B30: CFP0015 15L 96P (antibody, V domains shown)
VH: B1 VH
VL: B1 VL with A50E, L96P
B31: CFP0011 11L 32N (antibody, V domains shown)
VH: B2 VH
VL: B1 VL with D32N, A50H, N53S, Y91S, S93N, L96Y
B32: CFP0015 15L 96F (antibody, V domains shown)
VH: B1 VH
VL: B1 VL with A50E, L96F
B33: CFP0015 15L 92E (antibody, V domains shown)
VH: B1 VH
VL: B1 VL with A50E, D92E
B34: CFP0011 11L 30A (antibody, V domains shown)
VH: B2 VH
VL: B1 VL with E30A, A50H, N53S, Y91S, S93N, L96Y
B35: CFP0015 15L 96Y (antibody, V domains shown)
VH: B1 VH
VL: B1 VL with A50E, L96Y
B36: CFP0015 15L 53T (antibody, V domains shown)
VH: B1 VH
VL: B1 VL with A50E, N53T
B37: CFP0015 15L 93D (antibody, V domains shown)
VH: B1 VH
VL: B1 VL with A50E, S93D
B38: CFP0011 11L 30S (antibody, V domains shown)
VH: B2 VH
VL: B1 VL with E30S, A50H, N53S, Y91S, S93N, L96Y
B39: CFP0011 11L 31N (antibody, V domains shown)
VH: B2 VH
VL: B1 VL with D31N, A50H, N53S, Y91S, S93N, L96Y
B40: CFP0015 15L 93N (antibody, V domains shown)
VH: B1 VH
VL: B1 VL with A50E, S93N
B41: CFP0015 15L 91T (antibody, V domains shown)
VH: B1 VH
VL: B1 VL with A50E, Y91T
B42: CFP0015 15L 50Y (antibody, V domains shown)
VH: B1 VH
VL: B1 VL with A50Y
B43: CFP0011 11L 30H (antibody, V domains shown)
VH: B2 VH
VL: B1 VL with E30H, A50H, N53S, Y91S, S93N, L96Y
B44: CFP0015 15L 93G (antibody, V domains shown)
VH: B1 VH
VL: B1 VL with A50E, S93G
B45: CFP0015 15L 91H (antibody, V domains shown)
VH: B1 VH
VL: B1 VL with A50E, Y91H

Target: T1, human C5 (human, UniProt P01031 19-673; P01031 678-1676, Beta and alpha chains are disulfide-linked and the protein is glycosylated.)
T1 construct: Either in-house recombinant C5 or plasma derived C5 (CALBIOCHEM) was used; also called recombinant human C5; plasma derived human C5
Experiment: Biacore, captured antibody, pH 7.4, 37 C;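 also: biacore binding response of anti-C5 antibody light chain variants captured on chip with human C5 injected, ACES running buffer containing 1.2 mM CaCl₂, parent light chain antibody set to 100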

| Binder | % binding (parent = 100) [%] |
| --- | --- |
| B1 | 44.2 |
| B2 | 100 |
| B3 | 20.4 |
| B4 | 30.1 |
| B5 | 26.9 |
| B6 | 44.2 |
| B7 | 74.1 |
| B8 | 8.8 |
| B9 | 53.1 |
| B10 | 46.1 |
| B11 | 59.7 |
| B12 | 131 |
| B13 | 80.8 |
| B14 | 3.6 |
| B15 | 2.4 |
| B16 | 10.6 |
| B17 | 51.8 |
| B18 | 21.7 |
| B19 | 103 |
| B20 | 96.4 |
| B21 | 51.3 |
| B22 | 73.6 |
| B23 | 100 |

| Binder | % binding (parent = 100) [%] |
| --- | --- |
| B24 | 112 |
| B25 | 50.7 |
| B26 | 4.5 |
| B27 | 71.4 |
| B28 | 27.3 |
| B29 | 96 |
| B30 | 49 |
| B31 | 3.6 |
| B32 | 11.8 |
| B33 | 99.8 |
| B34 | 100 |
| B35 | 7.5 |
| B36 | 75.8 |
| B37 | 45.1 |
| B38 | 44.5 |
| B39 | 125 |
| B40 | 80.4 |
| B41 | 50.7 |
| B42 | 46.9 |
| B43 | 13.6 |
| B44 | 78.6 |
| B45 | 81.5 |

Source: patent US20180016327A1 (Chugai, published 2018)
